Data: the supplement of paper PMC5998384

Tests used:
HeLa Kyoto [1] = experiment: thermal stability score vs G1/S (z-score of summed log2 fold changes over temperatures); higher = more thermally stable than in G1/S
HeLa Kyoto [2] = experiment: solubility change mitosis vs G1/S (difference of NP-40 vs SDS log2 ratios) (log2 ratio difference); higher = more soluble in mitosis
HeLa Kyoto [3] = experiment: solubility in G1/S (NP-40 vs SDS abundance) (log2 ratio); higher = more soluble; settings: cell cycle stage: G1/S
[4] = cell cycle stage: early G1 (4.5 h after nocodazole release)
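Throughout, for solubility change mitosis vs G1/S (difference of NP-40 vs SDS log2 ratios): synchronized HeLa Kyoto cells (double thymidine block for G1/S, nocodazole release for mitosis), protein amounts in NP-40 versus SDS lysates quantified by mass spectrometry, three biological replicates.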
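Throughout, for solubility in G1/S (NP-40 vs SDS abundance): HeLa Kyoto cells arrested at G1/S by double thymidine block, proteins quantified by TMT10plex mass spectrometry in mild NP-40 versus SDS extracts, three biological replicates.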
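Throughout, for thermal stability score vs G1/S (z-score of summed log2 fold changes over temperatures): synchronized HeLa Kyoto cells, proteins quantified by TMT10plex mass spectrometry, three biological replicates, mitosis taken 0.5 h after nocodazole release, G1/S directly after double thymidine block.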

Sequence | thermal stability score (HeLa Kyoto [1]; [4]) | thermal stability score (HeLa Kyoto [1]; cell cycle stage: mitosis) | solubility change mitosis (log2) (HeLa Kyoto [2]) | solubility in G1/S (log2) (HeLa Kyoto [3])
MKVVPEKNAVRILWGRERGARAMGAQRLLQELVEDKTRWMKWEGKRVELPDSPRSTFLLAFSPDRTLLASTHVNHNIYITEVKTGKCVHSLIGHRRTPWCVTFHPTISGLIASGCLDGEVRIWDLHGGSESWFTDSNNAIASLAFHPTAQLLLIATANEIHFWDWSRREPFAVVKTASEMERVRLVRFDPLGHYLLTAIVNPSNQQGDDEPEIPIDGTELSHYRQRALLQSQPVRRTPLLHNFLHMLSSRSSGIQVGEQSTVQDSATPSPPPPPPQPSTERPRTSAYIRLRQRVSYPTAECCQHLGILCLCSRCSGTRVPSLLPHQDSVPPASARATTPSFSFVQTEPFHPPEQASSTQQDQGLLNRPSAFSTVQSSTAGNTLRNLSLGPTRRSLGGPLSSHPSRYHREIAPGLTGSEWTRTVLSLNSRSEAESMPPPRTSASSVSLLSVLRQQEGGSQASVYTSATEGRGFPASGLATESDGGNGSSQNNSGSIRHELQCDLRRFFLEYDRLQELDQSLSGEAPQTQQAQEMLNNNIESERPGPSHQPTPHSSENNSNLSRGHLNRCRACHNLLTFNNDTLRWERTTPNYSSGEASSSWQVPSSFESVPSSGSQLPPLERTEGQTPSSSRLELSSSASPQEERTVGVAFNQETGHWERIYTQSSRSGTVSQEALHQDMPEESSEEDSLRRRLLESSLISLSRYDGAGSREHPIYPDPARLSPAAYYAQRMIQYLSRRDSIRQRSMRYQQNRLRSSTSSSSSDNQGPSVEGTDLEFEDFEDNGDRSRHRAPRNARMSAPSLGRFVPRRFLLPEYLPYAGIFHERGQPGLATHSSVNRVLAGAVIGDGQSAVASNIANTTYRLQWWDFTKFDLPEISNASVNVLVQNCKIYNDASCDISADGQLLAAFIPSSQRGFPDEGILAVYSLAPHNLGEMLYTKRFGPNAISVSLSPMGRYVMVGLASRRILLHPSTEHMVAQVFRLQQAHGGETSMRRVFNVLYPMPADQRRHVSINSARWLPEPGLGLAYGTNKGDLVICRPEALNSGVEYYWDQLNETVFTVHSNSRSSERPGTSRATWRTDRDMGLMNAIGLQPRNPATSVTSQGTQTLALQLQNAETQTEREVPEPGTAASGPGEGEGSEYGASGEDALSRIQRLMAEGGMTAVVQREQSTTMASMGGFGNNIIVSHRIHRSSQTGTEPGAAHTSSPQPSTSRGLLPEAGQLAERGLSPRTASWDQPGTPGREPTQPTLPSSSPVPIPVSLPSAEGPTLHCELTNNNHLLDGGSSRGDAAGPRGEPRNR [AMBRA1] | 0.941 | 1.96 | -0.123 | 0.0307
MLGPCMLLLLLLLGLRLQLSLGIIPVEEENPDFWNREAAEALGAAKKLQPAQTAAKNLIIFLGDGMGVSTVTAARILKGQKKDKLGPEIPLAMDRFPYVALSKTYNVDKHVPDSGATATAYLCGVKGNFQTIGLSAAARFNQCNTTRGNEVISVMNRAKKAGKSVGVVTTTRVQHASPAGTYAHTVNRNWYSDADVPASARQEGCQDIATQLISNMDIDVILGGGRKYMFRMGTPDPEYPDDYSQGGTRLDGKNLVQEWLAKRQGARYVWNRTELMQASLDPSVTHLMGLFEPGDMKYEIHRDSTLDPSLMEMTEAALRLLSRNPRGFFLFVEGGRIDHGHHESRAYRALTETIMFDDAIERAGQLTSEEDTLSLVTADHSHVFSFGGYPLRGSSIFGLAPGKARDRKAYTVLLYGNGPGYVLKDGARPDVTESESGSPEYRQQSAVPLDEETHAGEDVAVFARGPQAHLVHGVQEQTFIAHVMAFAACLEPYTACDLAPPAGTTDAAHPGRSVVPALLPLLAGTLLLLETATAP [ALPP] | -3.03 | -2.91 | -0.115 | -0.46
